Test results as given in the supplement of paper PMC6755084.

B1: minF1; the commonest letter at each place (parent)
chain: GAGACCGCAACTGAAAAGTTGTTATCAGAAATGGATGGGTTGAATTTCTGCACGTAGAAGCAAAAGGC

Variants of: B1
Assay: fraction ligated after 30 min (ligated reads / total reads); higher = more ligase activity
Conditions: with F1*subA RNA substrate (template-directed ligation), 42 °C
In short: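 RNAs for minimized ligase ribozyme variants were transcribed with T7 from PCR-amplified oligo-pool templates and purified on gels. Ligated and unligated species were resolved on gels, converted to cDNA with barcoded primers, and read on a MiSeq with core bases filtered at quality ≥30. Fraction ligated per variant is the ratio of ligated reads to total reads.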

Row | Variant | fraction ligated
1 | A29T A30T | 0.789
2 | A29T A30C | 0.806
3 | A29T A30G | 0.821
4 | G28A T32A | 0.0454
5 | G28A T32C | 0.0224
6 | G28A T32G | 0.0134
7 | G28T G37A | 0.00866
8 | G28T G37C | 0.00638
9 | G28T G37T | 0.0287
10 | A30T G37A | 0.00958
11 | A30T G37T | 0.0219
12 | A30T G37C | 0.0041
13 | A31G A43T | 0.168
14 | A31G A43G | 0.101
15 | A31G A43C | 0.142
16 | A31G G42C | 0.0118
17 | A31G G42A | 0.367
18 | A29C A35T | 0.012
19 | A29C A35G | 0.189
20 | A29C A35C | 0.00361
21 | A29G G42C | 0.00737
22 | A29G G42A | 0.28
23 | A29G G42T | 0.096
24 | A31G | 0.805

Row | Variant | fraction ligated
25 | A31C | 0.813
26 | A29G A43T | 0.0936
27 | A29G A43G | 0.0803
28 | A29G A43C | 0.0987
29 | A29G A30T | 0.817
30 | A29G A30C | 0.84
31 | A29G A30G | 0.811
32 | G28C G37T | 0.0184
33 | G28C G37A | 0.0114
34 | G28C G37C | 0.0045
35 | G28T A35T | 0.051
36 | G28T A35C | 0.0723
37 | G28T A35G | 0.437
38 | A30C G33T | 0.435
39 | A30C G33A | 0.773
40 | A30C G33C | 0.684
41 | A29C G37T | 0.0129
42 | A29C G37A | 0.00482
43 | A29C G37C | 0.00528
44 | G28T A44C | 0.685
45 | G28T A44T | 0.794
46 | G28T A44G | 0.759
47 | A29C T32A | 0.0419
48 | A29C T32G | 0.0113

Row | Variant | fraction ligated
49 | A29C T32C | 0.0191
50 | A30G A31T | 0.836
51 | A30G A31C | 0.777
52 | A30G A31G | 0.84
53 | A30G G37A | 0.00857
54 | A30G G37T | 0.0167
55 | A30G G37C | 0.00443
56 | A29T T36G | 0.0504
57 | A29T T36A | 0.0343
58 | A29T T36C | 0.0219
59 | G28T T32G | 0.0263
60 | G28T T32A | 0.0381
61 | G28T T32C | 0.0326
62 | G28T G34C | 0.00596
63 | G28T G34A | 0.141
64 | G28T G34T | 0.00519
65 | A30C T32G | 0.019
66 | A30C T32A | 0.0274
67 | A30C T32C | 0.00933
68 | G28C A43C | 0.0652
69 | G28C A43T | 0.0901
70 | G28C A43G | 0.0597
71 | A30G G42C | 0.0189
72 | A30G G42A | 0.487

Row | Variant | fraction ligated
73 | A30G G42T | 0.215
74 | A29T A43C | 0.065
75 | A29T A43T | 0.0859
76 | A29T A43G | 0.0507
77 | A30T G34A | 0.0989
78 | A30T G34T | 0.00578
79 | A30T G34C | 0.00584
80 | A31C G33A | 0.767
81 | A31C G33T | 0.355
82 | A31C G33C | 0.653
83 | A31C G34A | 0.055
84 | A31C G34T | 0.00764
85 | A31C G34C | 0.0027
86 | G28C A44G | 0.674
87 | G28C A44C | 0.596
88 | G28C A44T | 0.719
89 | A31C T36G | 0.0226
90 | A31C T36C | 0.0114
91 | A31C T36A | 0.0194
92 | A29T T32C | 0.0232
93 | A29T T32G | 0.0161
94 | A29T T32A | 0.0493
95 | A29C A43G | 0.0549
96 | A29C A43T | 0.0813

Row | Variant | fraction ligated
97 | A29C A43C | 0.0193
98 | A29C A44C | 0.607
99 | A29C A44G | 0.748
100 | A29C A44T | 0.705
101 | A31G G33T | 0.567
102 | A31G G33C | 0.765
103 | A31G G33A | 0.811
104 | A30T A43G | 0.0459
105 | A30T A43C | 0.0532
106 | A30T A43T | 0.0685
107 | A31C A43G | 0.0644
108 | A31C A43T | 0.0946
109 | A31C A43C | 0.0314
110 | A30G | 0.807
111 | A30T | 0.823
112 | A30C | 0.806
113 | A30C T36A | 0.0266
114 | A30C T36C | 0.0174
115 | A30C T36G | 0.0467
116 | A29C T36A | 0.0288
117 | A29C T36C | 0.0172
118 | A29C T36G | 0.0261
119 | A30G G34A | 0.0439
120 | A30G G34T | 0.00265

Row | Variant | fraction ligated
121 | A30G G34C | 0.00227
122 | A29C G33T | 0.526
123 | A29C G33C | 0.743
124 | A29C G33A | 0.784
125 | G28T A29G | 0.832
126 | G28T A29T | 0.829
127 | G28T A29C | 0.784
128 | G28A G34T | 0.00746
129 | G28A G34A | 0.0882
130 | G28A G34C | 0.00587
131 | A29T A31T | 0.828
132 | A29T A31G | 0.811
133 | A29T A31C | 0.798
134 | A30G A44T | 0.809
135 | A30G A44G | 0.833
136 | A30G A44C | 0.735
137 | G28T T36C | 0.0288
138 | G28T T36A | 0.0434
139 | G28T T36G | 0.0726
140 | G28C G34A | 0.109
141 | G28C G34C | 0.00831
142 | G28C G34T | 0.00677
143 | G28C A30G | 0.816
144 | G28C A30C | 0.817

Row | Variant | fraction ligated
145 | G28C A30T | 0.825
146 | A30T A31T | 0.818
147 | A30T A31G | 0.785
148 | A30T A31C | 0.801
149 | A30G T32G | 0.0298
150 | A30G T32A | 0.108
151 | A30G T32C | 0.0409
152 | A29G G33T | 0.516
153 | A29G G33C | 0.709
154 | A29G G33A | 0.8
155 | A30G G33C | 0.805
156 | A30G G33T | 0.672
157 | A30G G33A | 0.821
158 | G28T G42A | 0.359
159 | G28T G42C | 0.017
160 | G28T G42T | 0.142
161 | G28A G37A | 0.00676
162 | G28A G37T | 0.0166
163 | G28A G37C | 0.00899
164 | G28T A30C | 0.819
165 | G28T A30T | 0.832
166 | G28T A30G | 0.835
167 | G28C A29T A30T A31T | 0.752
